For assay [1], the target named is Bcl-XL expressed in MCF7 cells (UniProt Q07817). The assay is described as follows: cell-based or functional assay.
For assay [2], the target named is T1, M11 expressed in MCF7 cells (murine γHV68) (UniProt P89884).
T1 sequence: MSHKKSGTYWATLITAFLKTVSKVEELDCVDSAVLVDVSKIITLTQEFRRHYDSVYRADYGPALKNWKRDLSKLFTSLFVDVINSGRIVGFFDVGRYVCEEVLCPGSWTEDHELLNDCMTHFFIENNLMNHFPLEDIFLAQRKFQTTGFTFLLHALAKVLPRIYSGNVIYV
The assay is described as follows: cell-based or functional assay.

Sequence of Bcl-XL expressed in MCF7 cells (Q07817 whole entry): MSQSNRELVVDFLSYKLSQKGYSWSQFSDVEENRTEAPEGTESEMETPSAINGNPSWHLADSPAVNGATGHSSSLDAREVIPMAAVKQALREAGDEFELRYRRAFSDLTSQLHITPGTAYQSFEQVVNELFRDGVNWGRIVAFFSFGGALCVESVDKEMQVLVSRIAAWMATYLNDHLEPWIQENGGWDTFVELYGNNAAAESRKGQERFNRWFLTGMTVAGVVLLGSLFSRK

On to “Beclin 1 L112A mutant, expressed in MCF7 cells (from UniProt Q14457 1-450)”, for which, in assay [1], the Bcl-XL-mediated down-regulation of autophagy (GFP-LC3 puncta per cell, MCF7) was 0.0621 p (t-test). Further, in assay [2], the M11-mediated down-regulation of autophagy (GFP-LC3 puncta per cell, MCF7) was 0.00065 p (t-test).
As to “Beclin 1 G120E mutant, expressed in MCF7 cells (from UniProt Q14457 1-450)”, the Bcl-XL-mediated down-regulation of autophagy (GFP-LC3 puncta per cell, MCF7) in assay [1] is 0.0119 p (t-test). Also, the M11-mediated down-regulation of autophagy (GFP-LC3 puncta per cell, MCF7) in assay [2] was 0.0313 p (t-test).
In the case of “Beclin 1 L116A mutant, expressed in MCF7 cells (from UniProt Q14457 1-450)”, the Bcl-XL-mediated down-regulation of autophagy (GFP-LC3 puncta per cell, MCF7) in assay [1] is 0.00212 p (t-test). Moreover, the M11-mediated down-regulation of autophagy (GFP-LC3 puncta per cell, MCF7) in assay [2] is 0.00432 p (t-test).
For the substance “Beclin 1 F123A mutant, expressed in MCF7 cells (from UniProt Q14457 1-450)”, in assay [1], the Bcl-XL-mediated down-regulation of autophagy (GFP-LC3 puncta per cell, MCF7) was 0.00246 p (t-test). In addition, the M11-mediated down-regulation of autophagy (GFP-LC3 puncta per cell, MCF7) in assay [2] is 0.0107 p (t-test).
Regarding “Beclin 1 K117A mutant, expressed in MCF7 cells (from UniProt Q14457 1-450)”, in assay [1], the Bcl-XL-mediated down-regulation of autophagy (GFP-LC3 puncta per cell, MCF7) is 0.504 p (t-test). For the same substance, the M11-mediated down-regulation of autophagy (GFP-LC3 puncta per cell, MCF7) in assay [2] is 0.157 p (t-test).
Taken in the same sequence, the figures for “Beclin 1 G120E+D121A double mutant, expressed in MCF7 cells (from UniProt Q14457 1-450)” were 0.00079 p (t-test) and 0.228 p (t-test).

(Values after patent publication US20160272691A1, “COMPOSITIONS AND METHODS FOR TREATING CONDITIONS ASSOCIATED WITH y-HERPESVIRUSES” (NDSU RESEARCH FOUNDATION, priority 2013, published 2016).)
